Where a chain is given by its changes, count along the chain named. Several values for one entry are separate records, joined by “and”; a condition that tells them apart may be missing. Identical values can stand only once.
T1: BK virus VP1 protein, genotype I (BK virus, UniProt P03088 1-362)
T1 sequence: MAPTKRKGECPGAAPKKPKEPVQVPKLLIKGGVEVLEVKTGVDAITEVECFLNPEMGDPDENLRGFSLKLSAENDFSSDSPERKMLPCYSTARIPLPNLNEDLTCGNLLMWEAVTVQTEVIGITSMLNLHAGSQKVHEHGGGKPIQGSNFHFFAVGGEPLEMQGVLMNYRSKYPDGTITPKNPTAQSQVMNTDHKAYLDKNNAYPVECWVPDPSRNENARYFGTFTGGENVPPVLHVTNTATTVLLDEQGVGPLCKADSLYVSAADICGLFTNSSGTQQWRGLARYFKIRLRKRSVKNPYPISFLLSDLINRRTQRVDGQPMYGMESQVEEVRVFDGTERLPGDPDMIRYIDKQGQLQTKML

B1: 7H8 (antibody, V domains shown)
VH: EVQLLESGGGLVQPGGSLRLSCAASGFAFHTYDMTWVRQAPGKGLEWVSGVVGSGINTYYADSVKGRFTISRDNSKSTLYLQMNSLRAEDTAVYYCAKDSSSWFSLHYWGQGTLVTVSS
VL: DIQMTQSPSTLSASVGDRVTITCRASQSISNWLAWYQQKPGKAPKLLIYKASSLESGVPSRFSGSGSGTDFTLTISSLQPDDFASYYCQQYRSYAYTFGQGTKLEIT
B2: 7A4 (antibody, V domains shown)
VH: QVQLVESGGDLVKPGGSLRLSCVASGFTFSDYYMNWIRLPPGKGLEWISYIDSSAGAIYYADSVKGRFTVSRDDAKNSLFLHMNSLRADDTAVYYCVRERRDGHKIFDYWGPGTLVTVSS
VL: DIVMTQSPDSLAVSLGERATINCKSSQNILYSSNNKNYLAWYQQKAGQPPKLLIFWSSIRESGVPDRFSGSGSGTDFTLTISSLQAEDVAVYYCQQYYSSPYNFGRGTTLEIK
B3: 1E2 (antibody, V domains shown)
VH: B2 VH with I48V, K65R, V97A, Y109C
VL: B2 VL with I59T, S82N
B4: 4F7 (antibody, V domains shown)
VH: B2 VH with S85N, V97A, Y109C
VL: B2 VL with I59T
B5: 1H10 (antibody, V domains shown)
VH: B2 VH with Q3H, L39M, S85N, V97A, Y109C
VL: B2 VL with I59T
B6: 2F7 (antibody, V domains shown)
VH: B2 VH with D10G, K43R, E46Q, F80Y, H82Q, V97A, Y109W, P112Q
VL: B2 VL with S32T, A40G, F55Y, I59T, E61N, Q95H, N103T, R106Q, T109N
B7: 8A11 (antibody, V domains shown)
VH: B2 VH with I58T, D89E, V97A, D102S, Y109C
VL: B2 VL with I59T
B8: 8D10 (antibody, V domains shown)
VH: B2 VH with Q3H, L79M, V97A
VL: B2 VL with I59T
B9: 2H1 (antibody, V domains shown)
VH: B2 VH with V97A, Y109C
VL: B2 VL with A46T, I59T
B10: 5A8 (antibody, V domains shown)
VH: B2 VH with K43R, N77K, H82Y, V97A
VL: B2 VL with I59T, Q95H
B11: 9B4 (antibody, V domains shown)
VH: B2 VH with V97A, D102E, Y109F
VL: B2 VL with V13L, W41C, I59T
B12: 14F5 (antibody, V domains shown)
VH: EVQLLESGGGLVQPGGSLRLSCAVSGFTFSSFAMSWVRQAPGKGLEWVSGISASGGTTNYADSVKGRFTISRDNSKNTLYLQMSSLRAEDTAEYYCAKDRFLEWVEGFDPWGQGILVTVSP
VL: DIQMTQSPSSLSASVGDRVTITCRASQSIGRFLIWYQQKPGKAPKLLLYATSSLQSGVPARFTGSGSGTDFTLTIGSLQPEDFATYYCQQSYITPLTFGGGTKVEIK
B13: 15C10 (antibody, V domains shown)
VH: B12 VH with V24A
VL: B12 VL
B14: 9G9 (antibody, V domains shown)
VH: EVQLLESGGGLVQPGGSLRLSCAASGFTFHNYAMSWVRQAPGKGLEWVSGISGSGGTAYYADSVKGRFTISRDNSKNTLYLQMNSLRADDTALYYCAKDRFLEWVEGFDSWGQGTLVTVSS
VL: B12 VL with R31S, L48I, T51A, A60S, T63S, T74I, G76S, I93N
B15: 6H12 (antibody, V domains shown)
VH: EVQLVESGGGLVQPGGSLRLSCAASGFTFSSYEMNWVRQAPGKGLEWVSYISSGGSSIKYADSVRGRFAFSRDNAENSVHLQMNSLRAEDTAVYYCARVGGSYYYSYAMDVWGQGTAVTVSS
VL: DIQLTQSPSFLSASVGDRVTITCWASQDISSYLAWYQQKPGKAPKLLIYAASTLQSGVPSRFTGSGSGTEFTLTISSLQPEDFATYYCQQPHNSPFSFGPGTKVDVK
B16: 9H9 (antibody, V domains shown)
VH: B15 VH with A69T, A88G
VL: B15 VL with T63S, H92N, S94Y
B17: 11D12 (antibody, V domains shown)
VH: B15 VH with A69T, H80F, A88G
VL: B15 VL with T63S, H92N, S94Y
B18: 7E5 (antibody, V domains shown)
VH: EVQLLESGGGLIQPGGSLRLSCAASGFTFSGFAMSWVRQAPGKGLEWVSGISGSGDITYYGDSVKGRFTISRDNSKSTLYLQMNSLRDADTAVYYCGKDPYNWNHGVYGMDVWGQGTTVTVSS
VL: DIQMTQSPSSLSASVGDRVTITCRASQSISTYLNWYQQKPGKAPKFLIYGASSLQSGVPSRFSGSGSGTDFSLTISSLHPGDFATYYCQQSYNIPLTFGGGTKVEIK
B19: 4E6 (antibody, V domains shown)
VH: EVQLVESGGDLVQPGRSLRLSCAASGFTFDDYAMHWVRQGPGKGLEWVSGISWSGVTMGYADSVKGRFTISRDNAKNSLYLRMNSLRADDTAFYYCARGDGTNAFDIWGHGTMVTVSS
VL: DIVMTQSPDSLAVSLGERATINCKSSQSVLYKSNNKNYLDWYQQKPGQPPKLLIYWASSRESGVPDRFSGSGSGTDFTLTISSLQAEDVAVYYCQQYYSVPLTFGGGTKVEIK

molecular target: BK virus VP1 protein, genotype IV (BK virus); assay: cell-based or functional assay

Row | Binder | EC50, pseudovirus neutralization
1 | B1 | 94.3 pM
2 | B2 | 25.1 pM
3 | B3 | 143 pM
4 | B4 | 41.6 pM
5 | B5 | 107 pM
6 | B6 | 72.4 pM
7 | B7 | 94.8 pM
8 | B8 | 89.4 pM
9 | B9 | 72.8 pM and 81.5 pM
10 | B10 | 77.4 pM
11 | B11 | 11.8 pM
12 | B12 | 67.1 pM
13 | B13 | 42.3 pM
14 | B14 | 110 pM
15 | B15 | 2210 pM
16 | B16 | > 6670 pM
17 | B17 | > 6670 pM
18 | B18 | 133 pM
19 | B19 | 19.7 pM

molecular target: T1, BK virus VP1 protein, genotype I; assay: cell-based or functional assay

Row | Binder | EC50, pseudovirus neutralization [pM]
20 | B16 | 8.7
21 | B18 | 24.9
22 | B19 | > 6670

molecular target: BK virus VP1 protein, genotype III (BK virus); assay: cell-based or functional assay

Row | Binder | EC50, pseudovirus neutralization [pM]
23 | B1 | 33.4
24 | B2 | 8.1
25 | B3 | 8.1
26 | B4 | 14.3
27 | B5 | 39.7
28 | B6 | 2.2
29 | B7 | 31.5
30 | B8 | 29
31 | B10 | 3.9
32 | B11 | 11.8
33 | B12 | 21.5
34 | B13 | 21.1
35 | B14 | 1700
36 | B15 | 127
37 | B16 | 1140
38 | B17 | 6380
39 | B18 | 415
40 | B19 | 29.6

molecular target: BK virus VP1 protein, genotype II (BK virus); assay: cell-based or functional assay

Row | Binder | EC50, pseudovirus neutralization [pM]
41 | B1 | 50
42 | B2 | 13.2
43 | B3 | 33.2
44 | B4 | 31.9
45 | B5 | 2.8
46 | B6 | 1.1
47 | B7 | 1.4
48 | B8 | 49.2
49 | B10 | 0.9
50 | B11 | 15.2
51 | B12 | 13.1
52 | B13 | 13.1
53 | B14 | 3.2
54 | B15 | 10.9
55 | B16 | 8.3
56 | B17 | 9.5
57 | B18 | 1160
58 | B19 | 2.1

molecular target: BK virus VP1 protein, genotype IV (BK virus); assay: cell-based or functional assay; remark: another data set of the same source

Row | Binder | EC50, pseudovirus neutralization [pM] | EC50, pseudovirus neutralization (mAb mixed with irrelevant isotype matched mAb M2) [pM]
59 | B13 | 2.3 | 
60 | B14 |  | 196
61 | B15 |  | 944

molecular target: BK virus VP1 protein, genotype III (BK virus); assay: cell-based or functional assay; remark: another data set of the same source

Row | Binder | EC50, pseudovirus neutralization [pM] | EC50, pseudovirus neutralization (mAb mixed with irrelevant isotype matched mAb M2) [pM]
62 | B13 | 1.86 | 
63 | B14 |  | 1290
64 | B15 |  | 172

molecular target: BK virus VP1 protein, genotype II (BK virus); assay: cell-based or functional assay; remark: another data set of the same source

Row | Binder | EC50, pseudovirus neutralization [pM] | EC50, pseudovirus neutralization (mAb mixed with irrelevant isotype matched mAb M2) [pM]
65 | B13 | 0.58 | 
66 | B14 |  | 2.3
67 | B15 |  | 2.4
